Consider five molecules from PMC6965139, “Crystal structures of fukutin-related protein (FKRP), a ribitol-phosphate transferase related to muscular dystrophy” (Nature Communications, 2020).

The term stoichiometry N denotes the number of molecules, sites or subunits per partner or assembly.

The target of data set [1] is T1, sFKRP (secreted type, His/Myc, WT) (Homo sapiens, UniProt Q9H9S5).
T1 construct: gene FKRP; Asn33 to C-terminus in ss1-His/Myc-pcDNA3.1; secreted from HEK293T; immunoprecipitated on anti-c-Myc agarose; tags kept
T1 sequence (Q9H9S5 33-495): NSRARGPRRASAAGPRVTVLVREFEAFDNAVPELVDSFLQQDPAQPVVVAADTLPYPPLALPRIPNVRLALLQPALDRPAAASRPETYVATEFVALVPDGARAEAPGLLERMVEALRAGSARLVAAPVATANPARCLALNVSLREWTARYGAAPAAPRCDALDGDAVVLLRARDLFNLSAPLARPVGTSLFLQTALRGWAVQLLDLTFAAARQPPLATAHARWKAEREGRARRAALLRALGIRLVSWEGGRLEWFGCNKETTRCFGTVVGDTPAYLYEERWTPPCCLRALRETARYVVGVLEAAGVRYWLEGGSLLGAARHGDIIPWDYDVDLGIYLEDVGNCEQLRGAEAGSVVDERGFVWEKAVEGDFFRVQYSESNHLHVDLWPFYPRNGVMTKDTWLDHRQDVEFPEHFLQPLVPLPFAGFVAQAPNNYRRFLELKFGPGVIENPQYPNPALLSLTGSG
The data set is described as follows: ribitol-phosphate transfer, HPLC and MALDI-TOF MS. It counts as biochemical. Conditions: 200 uM CDP-Rbo, 40 uM RboP-(phospho-)core M3 peptide, 10 mM MnCl2 and MgCl2, pH 6.5, 310 K; enzyme on anti-Myc agarose.

Data set [2] concerns the target secreted type of FKRP Tyr88Phe mutant (Asn33 to the C-terminus, His/Myc) (human) (UniProt Q9H9S5).
Data set [3] concerns the target secreted type of FKRP Leu276Ile mutant (Asn33 to the C-terminus, His/Myc) (human) (UniProt Q9H9S5).
For data set [4], the target named is secreted type of FKRP Ser221Arg mutant (Asn33 to the C-terminus, His/Myc) (human) (UniProt Q9H9S5).
Data set [5] concerns the molecule itself. As to the kind of experiment: crystal structure; sFKRP without substrates, Mg2+ and Ba2+ bound forms; four subunits in the asymmetrical unit; hanging-drop vapor diffusion at 293 K, PEG 4000, HEPES-NaOH pH 7.5; interfaces judged with ePISA.

Turning to `Nc1ccn([C@@H]2O[C@H](COP(=O)(O)OP(=O)(O)OC[C@@H](O)[C@@H](O)[C@@H](O)CO)[C@@H](O)[C@H]2O)c(=O)n1` [CDP-Rbo], the “ribitol-phosphate transfer, HPLC and MALDI-TOF MS” value in data set [1] was “Enzymatic activity of sFKRP with CDP-Rbo and the RboP-(phospho-)core M3 peptide”.

B1: secreted type of FKRP Tyr88Phe mutant (Asn33 to the C-terminus, His/Myc) (enzyme)
chain: NSRARGPRRASAAGPRVTVLVREFEAFDNAVPELVDSFLQQDPAQPVVVAADTLPFPPLALPRIPNVRLALLQPALDRPAAASRPETYVATEFVALVPDGARAEAPGLLERMVEALRAGSARLVAAPVATANPARCLALNVSLREWTARYGAAPAAPRCDALDGDAVVLLRARDLFNLSAPLARPVGTSLFLQTALRGWAVQLLDLTFAAARQPPLATAHARWKAEREGRARRAALLRALGIRLVSWEGGRLEWFGCNKETTRCFGTVVGDTPAYLYEERWTPPCCLRALRETARYVVGVLEAAGVRYWLEGGSLLGAARHGDIIPWDYDVDLGIYLEDVGNCEQLRGAEAGSVVDERGFVWEKAVEGDFFRVQYSESNHLHVDLWPFYPRNGVMTKDTWLDHRQDVEFPEHFLQPLVPLPFAGFVAQAPNNYRRFLELKFGPGVIENPQYPNPALLSLTGSG
In data set [2], B1 had a glycosyltransferase activity with CDP-Rbo and the RboP-(phospho-)core M3 peptide, relative to the wild-type enzyme (% of the wild-type enzyme) of 20.

B2: secreted type of FKRP Leu276Ile mutant (Asn33 to the C-terminus, His/Myc) (enzyme)
chain: NSRARGPRRASAAGPRVTVLVREFEAFDNAVPELVDSFLQQDPAQPVVVAADTLPYPPLALPRIPNVRLALLQPALDRPAAASRPETYVATEFVALVPDGARAEAPGLLERMVEALRAGSARLVAAPVATANPARCLALNVSLREWTARYGAAPAAPRCDALDGDAVVLLRARDLFNLSAPLARPVGTSLFLQTALRGWAVQLLDLTFAAARQPPLATAHARWKAEREGRARRAALLRALGIRIVSWEGGRLEWFGCNKETTRCFGTVVGDTPAYLYEERWTPPCCLRALRETARYVVGVLEAAGVRYWLEGGSLLGAARHGDIIPWDYDVDLGIYLEDVGNCEQLRGAEAGSVVDERGFVWEKAVEGDFFRVQYSESNHLHVDLWPFYPRNGVMTKDTWLDHRQDVEFPEHFLQPLVPLPFAGFVAQAPNNYRRFLELKFGPGVIENPQYPNPALLSLTGSG
B2 gave a glycosyltransferase activity with CDP-Rbo and the RboP-(phospho-)core M3 peptide, relative to the wild-type enzyme (% of the wild-type enzyme) in data set [3] of 50.

B3: secreted type of FKRP Ser221Arg mutant (Asn33 to the C-terminus, His/Myc) (enzyme)
chain: NSRARGPRRASAAGPRVTVLVREFEAFDNAVPELVDSFLQQDPAQPVVVAADTLPYPPLALPRIPNVRLALLQPALDRPAAASRPETYVATEFVALVPDGARAEAPGLLERMVEALRAGSARLVAAPVATANPARCLALNVSLREWTARYGAAPAAPRCDALDGDAVVLLRARDLFNLSAPLARPVGTRLFLQTALRGWAVQLLDLTFAAARQPPLATAHARWKAEREGRARRAALLRALGIRLVSWEGGRLEWFGCNKETTRCFGTVVGDTPAYLYEERWTPPCCLRALRETARYVVGVLEAAGVRYWLEGGSLLGAARHGDIIPWDYDVDLGIYLEDVGNCEQLRGAEAGSVVDERGFVWEKAVEGDFFRVQYSESNHLHVDLWPFYPRNGVMTKDTWLDHRQDVEFPEHFLQPLVPLPFAGFVAQAPNNYRRFLELKFGPGVIENPQYPNPALLSLTGSG
B3: the glycosyltransferase activity with CDP-Rbo and the RboP-(phospho-)core M3 peptide, relative to the wild-type enzyme (% of the wild-type enzyme) in data set [4] is 5.

B4: soluble form of fukutin-related protein (sFKRP, residues 45 to C-terminus) (enzyme, human, UniProt Q9H9S5 45-495, looked up)
chain: AGPRVTVLVREFEAFDNAVPELVDSFLQQDPAQPVVVAADTLPYPPLALPRIPNVRLALLQPALDRPAAASRPETYVATEFVALVPDGARAEAPGLLERMVEALRAGSARLVAAPVATANPARCLALNVSLREWTARYGAAPAAPRCDALDGDAVVLLRARDLFNLSAPLARPVGTSLFLQTALRGWAVQLLDLTFAAARQPPLATAHARWKAEREGRARRAALLRALGIRLVSWEGGRLEWFGCNKETTRCFGTVVGDTPAYLYEERWTPPCCLRALRETARYVVGVLEAAGVRYWLEGGSLLGAARHGDIIPWDYDVDLGIYLEDVGNCEQLRGAEAGSVVDERGFVWEKAVEGDFFRVQYSESNHLHVDLWPFYPRNGVMTKDTWLDHRQDVEFPEHFLQPLVPLPFAGFVAQAPNNYRRFLELKFGPGVIENPQYPNPALLSLTGSG
notes: fukutin-related protein (FKRP), human, residues 45 to C-terminus, 451 amino acid residues in total; stem domain 45-287, catalytic domain 288-495; Sugar chains were removed by Endo H glycosidase before the last gel filtration; also called lumenal region of human FKRP; not shown: protein A, N-terminal, cleaved
Turning to B4, the “stoichiometry N” value in data set [5] came out at 4.
